Laboratory results from patent US20100041597A1, “PEPTIDES TARGETED TO PROTEIN KINASE C ISOFORMS AND USES THEREOF” (priority 2005, published 2010).

Molecular target: PKC-βII (Homo sapiens, UniProt P05771)
Experiment: ELISA-based competitive binding assay with purified PKC isoform
Design: key to Affinity for PKC isoform βII: —: no detectable affinity; Low to very low affinity at 10X or 20X or both PRE concentrations in at least one cell line in the cell extract assay; Low affinity in purified isoform assay.; Moderate affinity at 10X or 20X or both PRE concentrations in at least one cell line in the cell extract assay.; High affinity at 10X or 20X or both PRE concentrations in at least one cell line in the cell extract assay; High affinity in purified isoform assay
Details: for calculated binding capacity (100-% n) after subtraction of the DMSO apparent binding capacity / inhibition at 50 µM / inhibition at 100 µM / inhibition at 200 µM: purified PKC-βII; for Affinity for PKC isoform βII: Purified isoform, Table 20; for inhibition at 50 µM / inhibition at 100 µM / inhibition at 200 µM: read-out: calculated binding capacity (100-% n) after subtraction of the DMSO apparent binding capacity
Experimental: Peptides PRE 1, 2, 3, 4, 5, 6, 7, 8, 9, 10, 11, 12 and 13 (see Table 3) were tested for their ability to interfere with binding of PKC isoform-specific antibodies to their target PKC isoforms using a competitive binding assay and purified PKC isoforms.
Procedure: Competitive binding was assessed using a 96 well plate ELISA-based assay as described below.
Greiner 96 well ELISA plates were coated with the appropriate PKC isoform diluted in PBSN (PBS with Calcium/Magnesium+0.05% Sodium azide w/w). 50 μL/well at 250 ng/mL was used. Control wells contained PBSN only. Plates were incubated overnight at 4° C.
The plates were washed 3 times with 200 μL of dH2O per well, then 100 μL of blocking solution was added per well and the plate incubated for 1 h at 37° C. The washing steps with dH2O were repeated and 50 μL of the appropriate PRE solution (PRE stock solution [20 mM in DMSO] diluted in PBSN) was added and the plate incubated for 1 h at room temperature.
After incubation, 5 μL of 1.1:400 anti-PKC (isoform specific antibody) was added per well (to provide a final concentration of 1:4000). For PKC-epsilon, 1.1:800 dilution was used and for PKC-zeta a 1.1:100 dilution was used due to high and low binding affinity, respectively. The plates were then incubated 1 h at room temperature, followed by washing with dH2O as described above.
50 μL of 1:1000 dilution of Alkaline Phosphatase (AP) conjugated antibody (anti-rabbit for all except zeta, which was anti-goat) was then added and the plate incubated for 1 h at room temperature. Washing with dH2O was then repeated. Finally, 100 μL of pNPP solution in pNPP buffer (2 mM MgCl2, 100 mM Sodium bicarbonate in water, pH 9.8) was added to all wells and incubated for 8 minutes for α, βI, βII ε, and ζ, or for 15-20 mins for […] (until sufficient coloration is observed). The reaction was stopped by addition of Stop solution (2N NaOH) and the absorbance at 405 nm was read on a Galaxy Plate reader.
Controls were PKC without PRE; blank controls, and controls containing the final concentrations of DMSO used for solubilizing the PREs. The non-specific binding capacity related to DMSO was also measured.
The antibodies used were as follows: anti-PKC α (Cat. No. SC-208); anti-PKC βI (Cat. No. SC-209); anti-PKC βII (Cat. No. SC-210); anti-PKC δ (Cat. No. SC-213); anti-PKC ε (Cat. No. SC-214); anti-PKC ζ (Cat. No. SC-216-G) (all from Santa Cruz Biotechnology, Inc.). The AP-conjugated antibodies were obtained from Jackson Immuno Research Laboratories (West Grove, Pa.).
Calculations: The OD values measured at 405 nm represent the free PKC coated per well.
OD405 PKC alone−Blank OD405 of each sample=OD405 coated isoform
(OD405 of sample X/OD405 coated isoform)×100=% n that represents the percentage of X binding compared to control.
100-% n measures the relative binding capacity of X towards the tested isoform.
The apparent binding capacity of the DMSO samples was then subtracted from X binding capacity.
All measurements were made in triplicate and the values in the table represent the averaged calculated binding capacity values after subtraction of the DMSO apparent binding capacity (averaged from 12 values, respectively 10.80, 11.20 and 16.40 corresponding to the concentrations of DMSO used to dilute the […] at 200, 100 and 50 μM respectively). The results allow for quantitative comparison of the binding capacity of each PRE towards an individual isoform within each table, but not among isoforms due to differences in sensitivity of the specific antibodies toward the secondary antibody. This applies particularly to PKC-delta. As noted above, the colour development duration was increased 2-3 times and, as a result, the OD405 measurements may be overestimated for this isoform.

PKC-βII, sequence (P05771 1-673 isoform P05771-2): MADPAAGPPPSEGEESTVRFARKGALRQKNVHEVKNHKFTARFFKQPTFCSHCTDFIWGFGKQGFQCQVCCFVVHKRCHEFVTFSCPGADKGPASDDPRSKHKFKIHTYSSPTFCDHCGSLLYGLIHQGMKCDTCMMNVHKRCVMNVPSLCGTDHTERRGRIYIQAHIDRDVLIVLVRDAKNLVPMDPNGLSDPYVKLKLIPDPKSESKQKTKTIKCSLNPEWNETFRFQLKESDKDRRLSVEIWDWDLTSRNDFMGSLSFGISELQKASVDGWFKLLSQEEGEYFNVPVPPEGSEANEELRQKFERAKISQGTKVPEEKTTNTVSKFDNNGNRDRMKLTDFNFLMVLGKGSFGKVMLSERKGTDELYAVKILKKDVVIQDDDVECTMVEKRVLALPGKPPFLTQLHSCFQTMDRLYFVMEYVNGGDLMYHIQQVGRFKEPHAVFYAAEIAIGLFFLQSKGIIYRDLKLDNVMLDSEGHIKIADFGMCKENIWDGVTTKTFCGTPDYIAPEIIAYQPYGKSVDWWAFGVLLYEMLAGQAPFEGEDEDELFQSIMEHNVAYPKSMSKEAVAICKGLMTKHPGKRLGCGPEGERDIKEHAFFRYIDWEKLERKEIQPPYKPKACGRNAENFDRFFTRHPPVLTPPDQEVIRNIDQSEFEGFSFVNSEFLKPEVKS

| Substance | calculated binding capacity (100-% n) after subtraction of the DMSO apparent binding capacity (PRE 50 μM) | Affinity for PKC isoform βII | also measured |
| --- | --- | --- | --- |
| Ac-ISIGILNQADK-NH2 [PRE 10] |  | L |  |
| RRKKGGKDFVVKR [PRE 1] |  | — |  |
| Ac-ISIGILQNADK-NH2 [PRE 7] | 5.42 | — | calculated binding capacity (100-% n) after subtraction of the DMSO apparent binding capacity (PRE 100 μM): 11.07; calculated binding capacity (100-% n) after subtraction of the DMSO apparent binding capacity (PRE 200 μM): 2.59 |
| Ac-AKGIQEVKGGKDAQNLIGISI-NH2 [PRE 5] |  | — | inhibition at 50 µM (PRE 50 μM): 0%; inhibition at 100 µM (PRE 100 μM): 0%; inhibition at 200 µM (PRE 200 μM): 0% |
| Ac-AKGIQEVKGGDAQNLIGISI-NH2 [PRE 3] |  | — | inhibition at 50 µM (PRE 50 μM): 0%; inhibition at 100 µM (PRE 100 μM): 0%; inhibition at 200 µM (PRE 200 μM): 3.72% |
| Ac-isigilgnadk-NH2 [PRE 9] | 8.14 | H | calculated binding capacity (100-% n) after subtraction of the DMSO apparent binding capacity (PRE 100 μM): 0.3; targeting of PKC-βII (purified isoform, Tables 14-19): targeted most strongly |

More lines, main results first:

| calculated binding capacity (100-% n) after subtraction of the DMSO apparent binding capacity (PRE 50 μM) | Affinity for PKC isoform βII | Substance | also measured |
| --- | --- | --- | --- |
| 4.55 | — | Ac-KDAQNLI-NH2 [PRE 12] |  |
|  | — | Ac-KDANQLIGISI-NH2 [PRE 6] |  |
|  | L | Ac-KDAQNLIGISI-NH2 [PRE 4, Ac-KDAQNLIGISI-NH2] | inhibition at 50 µM (PRE 50 μM): 2.69%; inhibition at 100 µM (PRE 100 μM): 13.5%; inhibition at 200 µM (PRE 200 μM): 1.18% |
| 1.11 | — | ILEDKGGDAQNLIGISI [PRE 8] |  |
| 7.14 | — | Ac-RDAQNLIGISI-NH2 [PRE 11] | calculated binding capacity (100-% n) after subtraction of the DMSO apparent binding capacity (PRE 100 μM): 11.04; calculated binding capacity (100-% n) after subtraction of the DMSO apparent binding capacity (PRE 200 μM): 6.40 |
|  | — | Ac-RDAQNLI-NH2 [PRE 13] |  |
